From patent US20250163167A1 (SYNTHEKINE, published 2025)

Experiments:
[1] = molecular target: T1, hIL10Rb-his (Sino Biological, Catalog#10945) (human, UniProt Q08334 20-220); assay: SPR Biacore T200; mono-Fc VHH captured on Protein A chip, hIL10Rb-his analyte; 1:1 Langmuir fit
T1 construct: Bought; also called Sino Biological cat#10945-H08H; not shown: C-terminal poly-His tag
T1 sequence: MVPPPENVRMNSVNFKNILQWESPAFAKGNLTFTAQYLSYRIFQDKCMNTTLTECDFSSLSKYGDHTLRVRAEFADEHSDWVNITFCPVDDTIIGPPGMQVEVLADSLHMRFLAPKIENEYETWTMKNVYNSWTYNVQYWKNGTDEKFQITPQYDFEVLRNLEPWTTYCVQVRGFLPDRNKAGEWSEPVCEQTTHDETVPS

[2] = molecular target: T1, hIL10Rb-his (Sino Biological, …); assay: SPR; ratio of experimental to calculated Rmax
mIL10Rb ECD antigen = molecular target: T2, mIL10Rb ECD antigen (mouse, UniProt Q61190 20-220); assay: periplasmic extract ELISA (PE-ELISA) of phage clones
T2 construct: Antigen of biopanning and PE-ELISA; also called extracellular domain of mIL10Rb
T2 sequence: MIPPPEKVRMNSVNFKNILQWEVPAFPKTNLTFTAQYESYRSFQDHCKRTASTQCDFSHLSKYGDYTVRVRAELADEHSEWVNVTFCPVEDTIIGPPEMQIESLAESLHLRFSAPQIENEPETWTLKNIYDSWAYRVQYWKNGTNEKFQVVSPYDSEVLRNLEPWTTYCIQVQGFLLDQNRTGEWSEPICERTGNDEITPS

[3] = molecular target: T1, hIL10Rb-his (Sino Biological, …); assay: SPR; ratio of experimental to calculated Rmax; remark: listed apart in the source
[4] = molecular target: T1, hIL10Rb-his (Sino Biological, …); assay: SPR Biacore T200; biotinylated dual VHH captured on CAP biotin chip, hIL10Rb-his analyte; 1:1 Langmuir fit
[5] = molecular target: T3, hIL10Ra-his (Sino Biological, Catalog#10419) (human, UniProt Q13651 22-235); assay: SPR Biacore T200; biotinylated dual VHH captured on CAP biotin chip, hIL10Ra-his analyte; 1:1 Langmuir fit
T3 construct: Bought; also called Sino Biological cat#10419-H08H; not shown: C-terminal poly-His tag
T3 sequence: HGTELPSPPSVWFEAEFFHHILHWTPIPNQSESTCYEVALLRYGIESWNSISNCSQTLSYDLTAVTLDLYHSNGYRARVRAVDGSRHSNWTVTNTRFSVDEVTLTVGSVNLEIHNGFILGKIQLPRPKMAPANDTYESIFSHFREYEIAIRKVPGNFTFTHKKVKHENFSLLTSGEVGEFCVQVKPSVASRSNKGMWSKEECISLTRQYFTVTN

[6] = molecular target: T3, hIL10Ra-his (Sino Biological, …); assay: SPR Biacore T200; biotinylated dual VHH captured on CAP biotin chip, hIL10Ra-his analyte; kon, koff and Rmax printed N/A
[7] = molecular target: T1, hIL10Rb-his (Sino Biological, …); assay: SPR Biacore T200; mono-Fc VHH captured on Protein A chip, hIL10Rb-his analyte; 1:1 Langmuir fit (row flagged: inaccurate fit)
Text: To confirm and evaluate binding affinities of the binding of the hIL10Rb sdAbs, a representative example from each clonotype generated was selected for evaluation of binding via SPR. […] RMAX<100 RU indicates surface density compatible with kinetics analysis. Calculated Rmax values were generated using the equation: Rmax=Load (RU)×valency of ligand×(Molecular weight of analyte/Molecular weight of ligand). Surface activity was defined as the ratio of experimental/calculated Rmax.
One representative example from each clonotype of IL10a generated in accordance with Examples 1-3 was selected for evaluation of binding via SPR as follows. […] All experiments were conducted in 10 mM Hepes, 150 mM NaCl, 0.05% (v/v) Polysorbate 20 (PS20) and 3 mM EDTA (HBS-EP+ buffer) on a Biacore T200 instrument equipped with a Protein A derivatized sensor chip (Cytiva). Mono-Fc VHH ligands were flowed at 5 μl/min for variable time ranging from 18 to 300 seconds, reaching the capture loads listed in the tables below. Following ligand capture, injections of a 2-fold dilution series of the extracellular domain of the […] modified to incorporate a C-terminal poly-His sequence, typically comprising at least five concentrations between 1 μM and 1 nM, were performed in either high performance or single cycle kinetics mode. Surface regeneration was achieved by flowing 10 mM glycine-HCl, pH 1.5 (60 seconds, 50 μL/min).

B1: hIL-10Rb_VHH12 Mono-Fc (Fc fusion)
chain: QVQLQESGGGSVQAGGSLRLSCAASGYTYSSYCMGWFRQAPGKEREGVAHIDSDGSTSYADSVKGRFTISKDNAKNTLYLQMNSLKPEDTAMYYCAADPIPGPGYCDGGPNKYWGQGTQVTVSS
notes: Mono-Fc VHH captured on Protein A; not shown: mono-Fc part
With B1 the Kd [1] was 12.9 nM, the koff [1] was 0.00143 s⁻¹ and the kon [1] was 111000 M⁻¹ s⁻¹. The “Surface Activity” value [2] was 67%.

B2: DR1327 (anti mouse mIL10Rb VHH) (VHH)
VHH: QVQLQESGGGSVQAGGSLRLSCAASGYTYNGKCMAWFRQAPGKEREVVAGIYTGGSSTYYADSVKGRFTISQDNAKNTVYLQMDSLKPEDTAMYYCATSRSCSDLRRRSIAYWGQGTQVTVSS
notes: Phage clone, periplasmic extract
B2: binds (mIL10Rb ECD antigen).

B3: hIL-10Rb_VHH26 Mono-Fc (Fc fusion)
chain: QVQLQESGGGSVQAGGSLRLSCAASGYSYSSYCMGWFRQAPGKEREGVATIDSDGMTRYADSVKGRFTISKDNAKNTLYLQMNSLKPEDTAMYYCAAPLYDCDSGAVGRNPPYWGQGTQVTVSS
notes: as for B1
In the case of B3, the Kd [1] is reported as 314 nM, the koff [1] is reported as 0.0213 s⁻¹ and the kon [1] is reported as 67800 M⁻¹ s⁻¹. For the same binder, the “Surface Activity” value [2] was 54%.

B4: DR1326 (anti mouse mIL10Rb VHH) (VHH)
VHH: QVQLQESGGGSVQAGGSLRLSCTASRYIALNACMAWIRQAPGSEREVVATIVTDGSRTYYADSVKGRFTISQDNAKNTMYLQMNGLKPEDTAMYYCAADRRCPVSRAPYEYELRYWGQGTQVTVSS
notes: as for B2
B4: binds (mIL10Rb ECD antigen).

B5: hIL-10Rb_VHH3 Mono-Fc (Fc fusion)
chain: QVQLQESGGGSVQAGGSLRLSCAASRYTYNSYCMGWFRQAPGKEREGVATIDSDGMTRYADSVKGRFTISKDNAKNTLYLQMNSLKPEDTAMYYCAADADCTIAAMTTNPLGQGTQVTVSS
notes: as for B1
B5 showed a Kd [1] of 231 nM, a koff [1] of 0.0214 s⁻¹ and a kon [1] of 92900 M⁻¹ s⁻¹. The “Surface Activity” value [2] was 52%.

B6: hIL10Rb_VHH1-hIL10Ra_VHH9-biotin (bispecific antibody)
chain: QVQLQESGGGSVQAGGSLRLSCAASGYTYSSGCMGWFRQAPGKEREAVAAINSDGSTSYADSVKGRFTISKDNAKNTLYLQMNSLKPEDTAMYYCAAEPYCSGGYPRWSVAEFGYWGQGTQVTVSSGGGSQVQLQESGGGSVQAGGSLRLSCAVSGYAYSTYCMGWFRQAPGKEREGVAAIDSGGSTSYADSVKGRFTISKDNAKNTLYLRMNSLKPEDTAMYYCAAVPPPPDGGSCLFLGPEIKVSKADFRYWGQGTQVTVSS
modifications: conjugated to biotin (site not stated)
For B6, the Activity [3] was 25%, the Kd [4] was 2.7 nM and the koff [4] was 0.0018 s⁻¹. The kon [4] was 660000 M⁻¹ s⁻¹, the Kd [5] was 1.1 nM and the koff [5] was 0.00027 s⁻¹. It also gave a kon [5] of 250000 M⁻¹ s⁻¹.

B7: hIL10Rb_VHH12-hIL10Ra_VHH8 biotin (bispecific antibody)
chain: QVQLQESGGGSVQAGGSLRLSCAASGYTYSSYCMGWFRQAPGKEREGVAHIDSDGSTSYADSVKGRFTISKDNAKNTLYLQMNSLKPEDTAMYYCAADPIPGPGYCDGGPNKYWGQGTQVTVSSGGGSQVQLQESGGGSVQAGGSLRLSCAASGYTYSMYCMGWFRQAPGKEREGVAQINSDGSTSYADSVKGRFTISKDNAKNTLYLQMNSLKPEDTAMYYCAADSRVYGGSWYERLCGPYTYEYNYWGQGTQVTVSS
modifications: conjugated to biotin (site not stated)
For B7, the Activity [3] was 42%, the Kd [4] was 1.5 nM and the koff [4] was 0.00068 s⁻¹. It also gave a kon [4] of 440000 M⁻¹ s⁻¹, a Kd [5] of 0.35 nM and a koff [5] of 6.5e-05 s⁻¹. The kon [5] was 180000 M⁻¹ s⁻¹.

B8: hIL-10Rb_VHH1 Mono-Fc (Fc fusion)
chain: QVQLQESGGGSVQAGGSLRLSCAASGYTYSSGCMGWFRQAPGKEREAVAAINSDGSTSYADSVKGRFTISKDNAKNTLYLQMNSLKPEDTAMYYCAAEPYCSGGYPRWSVAEFGYWGQGTQVTVSS
notes: as for B1
In the case of B8, the Kd [1] is reported as 8.3 nM, the koff [1] is reported as 0.00144 s⁻¹ and the kon [1] is reported as 175000 M⁻¹ s⁻¹. For the same binder, the “Surface Activity” value [2] was 82%.

B9: hIL-10Rb_VHH15 Mono-Fc (Fc fusion)
chain: QVQLQESGGGSVQAGGSLRLSCTVSRYTASVNYMGWFRQAPGKEREGVATIFTGAGTTYYANSVKGRFTISRDNAKNTAYLQMNSLKPEDTAIYYCAVDFRGGLLYRPAYEYTYRGQGTQVTVSS
notes: as for B1
B9 gave a Kd [1] of 121 nM, a koff [1] of 0.00866 s⁻¹ and a kon [1] of 71800 M⁻¹ s⁻¹. For the same binder, the “Surface Activity” value [2] was 18%.

B10: hIL-10Rb_VHH27 Mono-Fc (Fc fusion)
chain: QVQLQESGGGSVQTGGSLRLSCAASGYTYLRGCMGWFRQAPGKEREGVAVMDVVGDRRSYIDSVKGRFTISRDNAANSVYLQMDNLKPEDTAMYYCTAGPNCVGWRSGLDYWGQGTQVTVSS
notes: as for B1
B10 showed a Kd [1] of 2.4 nM, a koff [1] of 0.0254 s⁻¹ and a kon [1] of 1.07e+07 M⁻¹ s⁻¹. For the same binder, the “Surface Activity” value [2] was 24%.

B11: hIL10Ra_VHH17-hIL10Rb_VHH16 biotin (bispecific antibody)
chain: QVQLQESGGGSVQAGGSLRLSCAASGYSNCSYDMTWYRQAPGKEREFVSAIHSDGSTRYADSVKGRFFISQDNAKNTVYLQMNSLKPEDTAMYYCKTDPLHCRAHGGSWYSVRANYWGQGTQVTVSSGGGSQVQLQESGGGSVEAGGSLRLSCAASGYTHSSYCMGWFRQAPGKEREGVAAIDVDGSTTYADSVKGRFTISKDNAKNTLYLQMNSLKPEDTGMYYCAAEFADCSSNYFLPPGAVRYWGQGTQVTVSS
modifications: conjugated to biotin (site not stated)
Binder B11 has a Kd [6] of under 5 nM, an Activity [3] of 34% and a Kd [4] of 2.9 nM. It also gave a koff [4] of 0.00045 s⁻¹ and a kon [4] of 160000 M⁻¹ s⁻¹.

B12: hIL-10Rb_VHH16 Mono-Fc (Fc fusion)
chain: QVQLQESGGGSVEAGGSLRLSCAASGYTHSSYCMGWFRQAPGKEREGVAAIDVDGSTTYADSVKGRFTISKDNAKNTLYLQMNSLKPEDTGMYYCAAEFADCSSNYFLPPGAVRYWGQGTQVTVSS
notes: as for B1
B12 gave a Kd [7] of 7540 nM, a koff [7] of 0.0221 s⁻¹ and a kon [7] of 2930 M⁻¹ s⁻¹.

B13: hIL10Ra_VHH12-hIL10Rb_VHH27 biotin (bispecific antibody)
chain: QVQLQESGGGSVQAGGSLRLSCTVSGYTYSSNCMGWFRQAPGKEREGVATIYTGGGNTYYADSVKGRFTISQDNAKNTVYLQMNNLKPEDTAMYYCAAEPLSRVYGGSCPTPTFDYWGQGTQVTVSSGGGSQVQLQESGGGSVQTGGSLRLSCAASGYTYLRGCMGWFRQAPGKEREGVAVMDVVGDRRSYIDSVKGRFTISRDNAANSVYLQMDNLKPEDTAMYYCTAGPNCVGWRSGLDYWGQGTQVTVSS
modifications: conjugated to biotin (site not stated)
notes: also called IL10 VHH DR509 biotin; DR509
B13 was tested, and the Activity [3] was 85%, the Kd [4] was 1.9 nM and the koff [4] was 0.003 s⁻¹. For the same binder, the kon [4] was 1.6e+06 M⁻¹ s⁻¹, the Kd [5] was 0.2 nM and the koff [5] was 0.00013 s⁻¹. The kon [5] was 490000 M⁻¹ s⁻¹.
